Measurements from PMC6521355, “Enzymatic Conversion of RBCs by α-N-Acetylgalactosaminidase from Spirosoma linguale” (Enzyme Research, 2019).

Legend:
[1] = target: Spirosoma linguale α-N-acetylgalactosaminidase (Spirosoma linguale); experiment: SEC; analytical gel filtration of the tag-free purified enzyme, Zorbax GF-250 column, 30°C, TBS (50 mM Tris 150 mM NaCl) pH 7.4, 1.0 mL/min; mass from Ve/Vo against five protein standards
[2] = target: T1, S. linguale α-NAGA (SlNAGA) (Spirosoma linguale, UniProt D2QUW2); experiment: Product inhibition of 4-nitrophenyl substrate hydrolysis, absorbance at […] nm, competitive model fit; assay type: biochemical; settings: 20 mM sodium phosphate pH 7.0, ~22 °C
T1 construct: gene Slin_6637; E. coli BL21(DE3); monomer 48215 Da calculated, 96 kDa dimer; primers encode N-term MPSLYTTAQ and C-term PIFGLTDVY
T1 sequence (D2QUW2 1-435): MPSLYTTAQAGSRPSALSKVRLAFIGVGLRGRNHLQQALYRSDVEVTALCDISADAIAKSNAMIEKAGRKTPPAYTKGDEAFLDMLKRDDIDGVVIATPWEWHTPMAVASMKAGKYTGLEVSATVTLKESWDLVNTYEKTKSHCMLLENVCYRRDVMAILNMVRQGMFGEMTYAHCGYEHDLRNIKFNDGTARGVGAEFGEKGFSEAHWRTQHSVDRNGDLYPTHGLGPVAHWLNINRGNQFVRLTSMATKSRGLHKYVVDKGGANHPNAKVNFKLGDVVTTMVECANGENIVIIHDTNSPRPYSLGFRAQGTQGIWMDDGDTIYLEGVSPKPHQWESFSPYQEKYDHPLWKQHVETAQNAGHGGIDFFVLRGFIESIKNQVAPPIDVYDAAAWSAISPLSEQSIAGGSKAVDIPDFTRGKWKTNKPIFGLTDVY

purified protein = substrate: CC(=O)N[C@H]1[C@@H](Oc2ccc([N+](=O)[O-])cc2)O[C@H](CO)[C@H](O)[C@@H]1O; experiment: purified protein; assay type: biochemical, Spirosoma linguale; settings: 20 mM sodium phosphate pH 7.4, 25 °C

**Q.** How did the stoichiometry N [1] turn out when “Spirosoma linguale α-N-acetylgalactosaminidase (enzyme)” was run?
**A.** 2

**Q.** How did the Ki [2] turn out when `CC(=O)N[C@H]1C(O)O[C@H](CO)[C@H](O)[C@@H]1O` (some centres unmarked) [N-acetylgalactosamine] was run?
**A.** 180 ± 24 µM

B1: S. linguale α-NAGA (SlNAGA) (Spirosoma linguale DSM 74) (protein)
chain: MPSLYTTAQAGSRPSALSKVRLAFIGVGLRGRNHLQQALYRSDVEVTALCDISADAIAKSNAMIEKAGRKTPPAYTKGDEAFLDMLKRDDIDGVVIATPWEWHTPMAVASMKAGKYTGLEVSATVTLKESWDLVNTYEKTKSHCMLLENVCYRRDVMAILNMVRQGMFGEMTYAHCGYEHDLRNIKFNDGTARGVGAEFGEKGFSEAHWRTQHSVDRNGDLYPTHGLGPVAHWLNINRGNQFVRLTSMATKSRGLHKYVVDKGGANHPNAKVNFKLGDVVTTMVECANGENIVIIHDTNSPRPYSLGFRAQGTQGIWMDDGDTIYLEGVSPKPHQWESFSPYQEKYDHPLWKQHVETAQNAGHGGIDFFVLRGFIESIKNQVAPPIDVYDAAAWSAISPLSEQSIAGGSKAVDIPDFTRGKWKTNKPIFGLTDVY
notes: E. coli BL21(DE3); monomer 48215 Da calculated, 96 kDa dimer; primers encode N-term MPSLYTTAQ and C-term PIFGLTDVY
**Q.** B1 was tested. Which Km (purified protein) did it give?
**A.** 1070 ± 70 µM

**Q.** And the kcat (purified protein)?
**A.** 173 s⁻¹

**Q.** What about the kcat/Km (purified protein) of the same molecule?
**A.** 163000 M⁻¹ s⁻¹
